Experimental data reported in the DeepSol protein solubility set.

Experiment: soluble on expression in E. coli; label from the status in PepcDB or PDB records

Sequence | soluble on expression in E. coli
MPHFNFDYQEFLMMVQHLKRRPLSRYLKDFKHSQTHCAHCRKLLDRITLVRDGKIVNKIEISRLDTLLDEKGWQTEQQSWAALCRFCGDLHCKTQSDFFDIIGFKKFLFEQTEMSPGTVREYVVRLRRLGNHLHEQNISLDQLQDGFLDEILAPWLPTTSTNNYRIALRKYQHYQRQTCTGLVQKSSSLPASDIY | not soluble
MPHVLVLNASYEPLGVVPLRRALVLVLENKAVCLEESGAFMHSATVTVPAPSVVRLKRFVRVPYRGPVPLTRRALFARDGGRCMYCGGVATSVDHVIPRSRGGQHAWDNVVASCRRCNHVKADRHLFEIGWRLRHKPAPPTGLAWRIIGTGHRDPRWLPYLQPYGADDAMARIDGISAAAALEHHHHHH | not soluble
MPILNLNNFLAALGNTPDYGRLFARAEHLAQVQKHLLNAVPFQLRNQCTVGQYTADGLLVIYAGNGTTATRLRHLAPSIRQKMNNAGVKVENIRFSIQPQLHSLESGNVREITRSLSQTAIEHLDKLSDSLPAGSPLQSSLAALLANSRRK | not soluble
MPISEDLKQAIRQRARYICEYCHSPERLSANRFTIDHVIPKSLGGSDAFNNLALACRRCNERRYNFVASIDPQTKTIVAIFNPRQQNWAEHFIWTNRGIIIQGTTTTGRATCIRLDLNDTRYPEEDSIQETRRFWLKTGLHPPIDDPCKNLEHHHHHH | soluble
MPIVNVKWQKEKYVVEVDTSAPPMVFKAQLFALTQVVPERQKVVIMGRTLGDDDWEGITIKENMTIMMMGSVGEIPKPPTVLEKKQANRDKQAEEISALYPCGLANLGNTCYFNSCVQMLKEVNELVLKPAEEMRIREHNDRLCHNLATLFNSLRDKDRALRSKGEPIKPFAAILTLSDSFPQFEKFKQQDANECLVSIMSNVTRIYGLSGWNIESLFRIQTETTMKCLESDEVSEKKVERNNQLTCYVNQDVRFLQTGIKAGFEEEMTRNSEELNRDAKWQKNTQISRLPKYLTVNINRFFYKESTKTNAKILKSVQFPMQLDTYDLCSQELKDKLVARRADIKLEEDAKLERELRKKVLDKEQGDKIFDDGVALPTAFEDDAGSNNSGFYDLKGIITHKGRSSQDGHYVAWMRSSEDGKWRLFDDEHVTVVDEEAILKTSGGGDWHSAYVLLYEARVIKQFPELPPAPVPTEVAADTAEPMEVSEKQ | not soluble
MPKAEGRIFDFKGHDAIRTDFLEAIDFDGKDEYIKIETDEFSAVCPFSGLPDIGRVIIEYYPDGGKIVELKSLKYYFVSFRNVGIYQEEATKRIYEDLKNLLKTDRIRVTVIYNIRGGIKTTTQMGSLEGKKSGEVE | not soluble
MPKESLLRELSALREQLEQQPPLNEEQRAELELLIRDIELKLANEDALNEGSLVDGVNLAVERFEVSHPTLAGTLRSIVQSLANMGI | not soluble
MPKNRGVLDAITRSVIDGSDQESSSSFNSDKEYAAVTKGLSSSRVQKKSSLRQMKSKVKELQSLVNHYRENEAALVSSAKLLSGEIIGYEIKMASLHGKMKSILDENNALKETHKSSAEKRIELVRLPSSKEERNYDEYTLLVNLKKEICAKLQDYKNVQNTVNTKLDEIHTFHEKYYEGLELSLDSKVFDAESSKELAKVRRELNNVRKNSEIKVNNLKMQLLQATKSLEHLKKQAKAKDDYLKCIPELVDKANLTMLSYKKSIANQRETIEALQAELSQQSETKGQIETETQNQVQIPTNVTLVDPFEENNPEDLFAIQEQELQDLRLHKKMADERSRTTHLHLERKNNTIKLLQSYVQSLIQRLPPAQRKHHLGIFQKLGSEKSCPLAPAVASTYAPLLLLSQHSNHQEIDNTPQRLLLAAPDGQSYSEKSTTLNLDYSSRKSYLSRLQPPHIANLKSLTLKTLPRVPTDSPQLPSKDKSQETAKKDDRPKLVANEPVTLDTSTPPVAQSLADSKHCSGLHK | not soluble
MPKPYIAINMADLKNEPKTFEMFSAVGPKVCMVTARHPGFVGFQNHVQIGVLPFGERFGGAKMDMTKESSTVRVLQYTMWKDWKDHEEMHRQNWSYLFRLCYSCASQMVWGPWEPIYEIKYADMPINTEMTDFTAVVGKKFAEGKPLEIPVISQPYGKRVVAFGEHTVIPGKEEQFEDAIIKTLEMFKRAPGFLGAMLLKEIGVSGIGSFQFGSKGFHQLLESPGSLEPDPNNVMYQAPEAKPTPPQYIVHVEWANLDALQFGMGRVLLSPEYREVHDEALDTLIYGPYIRIINPVMEGTFWREYLNE | soluble
MPLCTLRQMLGEARKHKYGVGAFNVNNMEQIQGIMKAVVQLKSPVILQCSRGALKYSDMIYLKKLCEAALEKHPDIPICIHLDHGDTLESVKMAIDLGFSSVMIDASHHPFDENVRITKEVVAYAHARSVSVEAELGTLGGIEEDVQNTVQLTEPQDAKKFVELTGVDALAVAIGTSHGAYKFKSESDIRLAIDRVKTISDLTGIPLVMHGSSSVPKDVKDMINKYGGKMPDAVGVPIESIVHAIGEGVCKINVDSDSRMAMTGAIRKVFVEHPEKFDPRDYLGPGRDAITEMLIPKIKAFGSAGHAGDYKVVSLEEAKAWYK | soluble
MPLDVALKRKYYEEVRPELIRRFGYQNVWEVPRLEKVVINQGLGEAKEDARILEKAAQELALITGQKPAVTRAKKSISNFKLRKGMPIGLRVTLRRDRMWIFLEKLLNVALPRIRDFRGLNPNSFDGRGNYNLGLREQLIFPEITYDMVDALRGMDIAVVTTAETDEEARALLELLGFPFRK | soluble
MPLSPTSVPLTVKEFEKALCGICGGCSSACGYIAYLKQDELVDLYGHPHDPNGIGSFCTKGITYIQEIPKNPLRITKPLLREGNNFREVEFQETKKLIKENLKGKVAFFLDRFAGIEEYLIARSLTEEVFSDSLYLPFKQTSVRAQDWVDKKALFIFEAEPTFSEVMLTRWIVDAFEKDAYIFTAGSRYTTVFQKSKEKVLTTPEKTTEILQALSEGRFEGKAQKFLEFFGKESVVIVGDTLLRSPFRGKVLKTLKEISEKYGADYSIVGNITPFPVKSLKEFLERLGEFDTLVLFGNPFIYLSDEQIQKLKDKFVINFAYFPTITANHSTLIIPRTTFAEREFIVKGFGFLAHSPQVLNAPFPQPYEYFESSFDVEDFLKECGVKLEELKEKEGGVDISMKDITEVDINEEDRSESGELWFICDNTLAEELGHWNPWTHALEREQFAYVNQKTKERLNIGNLIEINGVKLKVKVNNNLADNVVFVPNSFEEFQPFDPGIRVGRLMKKPFFKLEVLNLNV | not soluble
MPLYKLTYFDARGYAEPARILFHLAGVPFEDNRLTHGDGSWEKIKDKTPFGQVPVLSVDGFDIPQSAAIIRYLANKFGYAGKTPEEQAWADAIVDQFKDFMGAFRQLIMAQRSGKPAEEIAKISSEVAIPARDSYFKILNGLLEKSKSGFLVGDGLTFADIVVVENLTTLEKNQFFTASEHPKLSALREKVHAVPAIKTWVATRPDTQF | not soluble
MPNLPQKAQQRQPQEHKSRHKATDDTEAPKQQQQQQQQQQSFDVATNANGSSLPASRVKNPEEPGGKSPLVPMRQHHSKVTRPPPPPTLFLENSLLQRQFANPISYLGGPRLQPRSNRTSIDSILSLDLEHHHHHH | not soluble
MPNRKVVKFFFDVISPYSYFGFEGITRHRSVWKTPIQMKPFFFAGVVRHTENPGLPLRIPIKEKYMHKDLLFSAQYWGIPFRLPKDYTNMMLNTSSIVPQRILVASQLRDNVLMEDVARGLWHRFYAYGKPIFTKSQVAEVLRDLHVKDVDELVMMSDSAEVKNILRENTDEAIGNGCFGAPWMHITDGHGKVLQTVFGSDRLPQVADFLAEPFKGPMREKKPNA | not soluble
